Values of other authors as cited in patent publication US20040014652A1, “Tumor activated prodrug compounds and methods of making and using the same” (priority 2000, published 2004).

Columns and labels:
[1] = human, in vivo
[2] = test system: tumors; conditions: mice

TNFα
half-life [1]: 20 min
dose required for tumor regression [2]: approximately 400 μg/kg
